{"source": "patent US20240336661A1", "about": "“PEPTIDES DERIVED FROM RUMINOCOCCUS TORQUES” (University of Copenhagen, priority 2021, published 2024)", "key": {"[1]": {"experiment": "Targeted proteomics (PRM) assay for RUCILP2 in human plasma", "conditions": "measured from 6 individuals", "from_the_text": "FIG. 25. Representative chromatogram showing the presence of RUCILP2 in fasting human plasma. Parallel reaction monitoring (PRM) elution profile for y-ions for the unique tryptic RUCILP2 peptide (EAAGYNVYVDGVK) found in human plasma samples. Top panel is PRM trace for the fragmental ions (box a) of light peptide found in human plasma sample, bottom panel is PRM trace for the fragmental ions (box b) of 10.0 femtomole of heavy isotope labelled (Lys ^13C6, […]) synthetic peptide (internal standard, IS) spiked into fractionated human plasma samples. Retention times for each peptide are labeled on the x axis, and y axis represents the relative intensity for each fragmental ion peak. One milliliter of human plasma sample was depleted of albumin and immunoglobulin G following deglycosylation. Deglycosylated plasma was resolved by SDS-PAGE and molecular mass regions corresponding to completely deglycosylated RUCILP2 (10-15 kDa) was excised and subsequently digested in-gel overnight before LC-MS/MS detection. Based on comparative analysis on relative intensities of fragmental ions found in processed human plasma and fragmental ions found in plasma spiked with heavy isotope labelled internal standards, we estimate the inter-individual concentrations of RUCILP2 in human plasma vary between 10 and 100 pg/ml. […]"}, "[2]": {"experiment": "Insulin biosynthesis, summarised in Example 6", "assay_type": "cell-based"}}}
{"molecule": "RUCILP2: 87 amino acid irisin-like polypeptide cleaved from the Ruminococcus torques FNDC5-like protein RUMTOR_00181; recombinant, 6-His-tagged from E. coli (protein, 6-His tag; Ruminococcus torques, 87 amino acid irisin-like polypeptide cleaved from the Ruminococcus torques FNDC5-like protein RUMTOR_00181; recombinant, 6-His-tagged from E. coli) APVDVKVSEITETSAKASWKNAADGKEAAGYNVYVDGVKLNKELLTEASCGLTNLKAETTYFVEVTAVDAAGNESVKSEKVTFKTLK", "values": [{"measurement": "inter-individual concentration interval of RUCILP2 in human plasma", "setting": "[1]", "value": "10 to 100", "unit": "µg/mL"}, {"measurement": "insulin biosynthesis", "setting": "[2]", "value": "stimulates"}]}
